Reference: patent US20240209100A1 (DIAGONAL THERAPEUTICS, published 2024)

What was measured:
[1] = molecular target: T1, IL-18 receptor (IL-18Rα/IL-18Rβ) overexpressed on HEK-Blue IL-18 cells (Homo sapiens (Human), UniProt Q13478 19-541; O95256 20-599); assay: cell-based or functional assay
T1 sequence 1: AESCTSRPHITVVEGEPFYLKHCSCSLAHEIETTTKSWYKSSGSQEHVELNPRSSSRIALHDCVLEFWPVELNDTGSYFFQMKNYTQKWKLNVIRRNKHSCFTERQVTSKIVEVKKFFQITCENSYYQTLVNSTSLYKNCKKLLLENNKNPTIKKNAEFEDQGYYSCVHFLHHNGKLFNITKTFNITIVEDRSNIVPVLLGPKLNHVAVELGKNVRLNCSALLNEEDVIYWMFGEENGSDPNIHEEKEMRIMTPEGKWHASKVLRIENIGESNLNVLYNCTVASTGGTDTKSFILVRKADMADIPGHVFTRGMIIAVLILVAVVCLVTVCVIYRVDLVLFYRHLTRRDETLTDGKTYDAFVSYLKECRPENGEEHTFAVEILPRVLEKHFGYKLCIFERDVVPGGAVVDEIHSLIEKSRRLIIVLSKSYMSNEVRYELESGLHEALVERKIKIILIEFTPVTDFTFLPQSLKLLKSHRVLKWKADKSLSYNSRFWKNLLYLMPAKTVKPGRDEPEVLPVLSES
T1 sequence 2: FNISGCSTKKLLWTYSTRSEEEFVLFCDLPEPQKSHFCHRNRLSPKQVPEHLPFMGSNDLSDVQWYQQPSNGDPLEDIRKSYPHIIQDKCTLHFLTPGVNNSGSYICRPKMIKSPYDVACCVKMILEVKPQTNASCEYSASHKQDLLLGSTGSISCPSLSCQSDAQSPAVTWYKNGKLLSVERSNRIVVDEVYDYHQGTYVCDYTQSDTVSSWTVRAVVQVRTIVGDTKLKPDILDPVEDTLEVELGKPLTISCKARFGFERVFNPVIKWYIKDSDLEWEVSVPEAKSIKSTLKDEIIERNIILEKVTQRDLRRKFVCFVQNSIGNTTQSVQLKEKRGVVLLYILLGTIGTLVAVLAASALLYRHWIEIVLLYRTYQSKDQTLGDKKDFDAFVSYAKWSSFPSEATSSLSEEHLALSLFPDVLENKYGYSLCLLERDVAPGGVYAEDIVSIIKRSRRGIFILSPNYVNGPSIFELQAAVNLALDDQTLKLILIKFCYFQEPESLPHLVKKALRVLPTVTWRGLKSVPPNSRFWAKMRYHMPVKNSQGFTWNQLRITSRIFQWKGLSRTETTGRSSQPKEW

[2] = molecular target: T1, IL-18 receptor (IL-18Rα/IL-18Rβ) …; assay: cell-based or functional assay; remark: listed apart in the source
human IL-18Rα = molecular target: T2, human IL-18Rα (human, UniProt Q13478 19-329, limits assumed); assay: SPR (Carterra LSA), antibody captured on anti-human IgG-Fc, monomeric antigen as analyte, 25 C
T2 construct: Monomeric antigen injected in SPR; also called huIL18Ra; IL-18R alpha
T2 sequence: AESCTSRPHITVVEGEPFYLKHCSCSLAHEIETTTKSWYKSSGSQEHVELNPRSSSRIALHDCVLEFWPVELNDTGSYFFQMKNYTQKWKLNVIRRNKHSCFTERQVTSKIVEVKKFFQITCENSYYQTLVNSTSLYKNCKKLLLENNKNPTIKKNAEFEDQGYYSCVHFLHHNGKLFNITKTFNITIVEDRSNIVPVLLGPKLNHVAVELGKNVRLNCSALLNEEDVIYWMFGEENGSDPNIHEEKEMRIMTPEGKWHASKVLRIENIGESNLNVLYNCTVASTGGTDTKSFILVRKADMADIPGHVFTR
Experimental: (§1) SPR experiments were performed using Carterra LSA equipped with an HC30M chip (Carterra-Bio). Binding assays were carried out at 25° C. with HBSTE (10 mM HEPES ph7.4, 150 mM NaCl, 3 mM EDTA, 0.05% Tween-20) with 0.5 g/L BSA. A density of anti-human IgG-Fc capture lawn was established on an HC30M chip using amine coupling. […] Coupling of goat anti-human IgG (H+L) multi-species SP ads-UNLB (Southern Biotech, 2087-01) with standard immobilization was done for 15 minutes in 10 mM sodium acetate pH 4.5 and quenched using 1M ethanolamine HCl PH8.5. The anti-human IgG-Fc capture surface was then used to capture a panel of antibodies at 20 μg/mL. Monomeric antigen for human IL-18Rα, human IL-18Rβ, cynomolgus IL-18Rα, or rhesus IL-18Rβ targeted by the antibodies was injected over the captured antibody array at 6 concentrations in 4-fold dilution series starting at 500 nM. Binding data was referenced and blanked from a buffer injected, then globally fit to a 1:1 Langmuir binding model for estimation of ka, kd, and KD using Carterra Kinetics Software.

cynomolgus IL-18Rα = molecular target: T3, cynomolgus IL-18Rα (cynomolgus, UniProt A0A2K5V3J9 19-328); assay: as above
T3 construct: also called Cyno IL-18Rα; non-human primate IL-18Rα
T3 sequence: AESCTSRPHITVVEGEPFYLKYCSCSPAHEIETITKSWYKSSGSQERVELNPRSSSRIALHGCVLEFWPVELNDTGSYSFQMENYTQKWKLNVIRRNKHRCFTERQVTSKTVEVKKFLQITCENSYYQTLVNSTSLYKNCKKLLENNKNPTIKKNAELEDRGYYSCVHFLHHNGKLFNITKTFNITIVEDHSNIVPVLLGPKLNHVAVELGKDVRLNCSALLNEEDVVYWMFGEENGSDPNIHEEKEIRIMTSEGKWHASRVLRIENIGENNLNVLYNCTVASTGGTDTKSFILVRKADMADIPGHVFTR
Experimental: as §1

human IL-18Rβ = molecular target: T4, human IL-18Rβ (human, UniProt O95256 20-356, limits assumed); assay: as above
T4 construct: Monomeric antigen injected in SPR; also called IL-18R beta; IL-18Rb
T4 sequence: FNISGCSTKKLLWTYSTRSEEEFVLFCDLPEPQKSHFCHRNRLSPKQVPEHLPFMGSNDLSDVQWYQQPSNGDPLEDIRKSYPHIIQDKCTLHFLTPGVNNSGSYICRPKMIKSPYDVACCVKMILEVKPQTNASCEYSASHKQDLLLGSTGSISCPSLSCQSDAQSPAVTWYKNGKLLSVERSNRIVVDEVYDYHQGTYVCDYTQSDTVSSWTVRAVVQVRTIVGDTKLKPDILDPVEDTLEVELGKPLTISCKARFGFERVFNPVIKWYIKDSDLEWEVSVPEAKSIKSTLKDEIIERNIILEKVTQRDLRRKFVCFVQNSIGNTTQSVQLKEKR
Experimental: as §1

B1: DGL012 (bispecific antibody, human IgG1, kappa, L234A L235A)
heavy 1: EVQLVESGGGLVQAGGSLRLSCAASGRTFSDARMGWFRQAPGRERELIAFISWFGSNTNYGSSVKGRFTISRDNTKNTVYLQMNSLKLEDTAVYYCAACRQSICIDSAEYFDDWGQGTQVTVSSDKTHTCPPCPAPEAAGGPSVFLFPPKPKDTLMISRTPEVTCVVVDVSHEDPEVKFNWYVDGVEVHNAKTKPREEQYNSTYRVVSVLTVLHQDWLNGKEYKCKVSNKALPAPIEKTISKAKGQPREPQVCTLPPSRDELTKNQVSLSCAVKGFYPSDIAVEWESNGQPENNYKTTPPVLDSDGSFFLVSKLTVDKSRWQQGNVFSCSVMHEALHNHYTQKSLSLSPG
heavy 2: not shown
light: DIQMTQSPSSLSASVGDRVTITCQASESIDNWLAWYQQKPGQAPKLLIYSASNLASGVPSRFSGSGSGTDFTLTISSLQPEDFATYYCQSTFYGVNPVPNAFGQGTKVVIKRTVAAPSVFIFPPSDEQLKSGTASVVCLLNNFYPREAKVQWKVDNALQSGNSQESVTEQDSKDSTYSLSSTLTLSKADYEKHKVYACEVTHQGLSSPVTKSFNRGEC
In the case of B1, the “HEK-Blue IL-18: Emax (Abs at 630 nm) at 10^8 (average of two replicates)” value (“HEK-Blue IL-18: Emax (Abs at 630 nm)” for short) [1] is reported as 0.28 Abs at 630 nm.

B2: DGL175 (bispecific antibody)
heavy 1: QLQLVESGGGLVQAGGSLRLSCAASRSITFSHNVMGWYRQAPGKQRELVASIGSGGSTNYVDSVKGRATISRDNAKKTVYLQMNSLKPEDTAVYYCGVVVGVYRGSLGQGTQVTVSSGGGSQVQLQESGGGLVQAGGSLRLSCQASGSIATINGMRWWRQAPGKERELVATINSGGSSNYADSVKGRFTISRDNASHTVSLQMNSLKPEDTAVYYCNLYVYSQFPPFSVDDYWGQGARVTVSSDKTHTCPPCPAPEAAGGPSVFLFPPKPKDTLMISRTPEVTCVVVDVSHEDPEVKFNWYVDGVEVHNAKTKPREEQYNSTYRVVSVLTVLHQDWLNGKEYKCKVSNKALPAPIEKTISKAKGQPREPQVCTLPPSRDELTKNQVSLSCAVKGFYPSDIAVEWESNGQPENNYKTTPPVLDSDGSFFLVSKLTVDKSRWQQGNVFSCSVMHEALHNHYTQKSLSLSPG
heavy 2: not shown
For B2, the “HEK-Blue IL-18: Abs 405” value [2] was 1.1 Abs and the “HEK-Blue IL-18: Fold over Background” value [2] was 9.1 fold.

B3: DGL020 (bispecific antibody, human IgG1, kappa, L234A L235A)
heavy 1: EVQLVESGGGLVQAGGSLRLSCAASGRTFSDARMGWFRQAPGRERELIAFISWFGSNTNYGSSVKGRFTISRDNTKNTVYLQMNSLKLEDTAVYYCAACRQSICIDSAEYFDDWGQGTQVTVSSDKTHTCPPCPAPEAAGGPSVFLFPPKPKDTLMISRTPEVTCVVVDVSHEDPEVKFNWYVDGVEVHNAKTKPREEQYNSTYRVVSVLTVLHQDWLNGKEYKCKVSNKALPAPIEKTISKAKGQPREPQVCTLPPSRDELTKNQVSLSCAVKGFYPSDIAVEWESNGQPENNYKTTPPVLDSDGSFFLVSKLTVDKSRWQQGNVFSCSVMHEALHNHYTQKSLSLSPG
heavy 2: not shown
light: DIQMTQSPSSLSASVGDRVTITCQATEDIESFLAWYQQKPGQAPKLLIYRASTLESGVPSRFSGSGSGTDFTLTISSLQPEDFATYYCQSTVYGVNFVANAFGGGTKVVIKRTVAAPSVFIFPPSDEQLKSGTASVVCLLNNFYPREAKVQWKVDNALQSGNSQESVTEQDSKDSTYSLSSTLTLSKADYEKHKVYACEVTHQGLSSPVTKSFNRGEC
With B3 the “HEK-Blue IL-18: Emax (Abs at 630 nm)” value [1] was 0.37 Abs at 630 nm.

B4: DGL023 (bispecific antibody, human IgG1, kappa, L234A L235A)
heavy 1: EVQLVESGGGLVQPGGSLRLSCAASGFTRSYYTIAWFRQAPGKEREGISCIRNTDGSTVVSDSVEGRFTISRDNAKNTVFLQMNSLKTEDTAVYYCAARNDRYGGLCSVRHNYEYWGQGTQVTVSSDKTHTCPPCPAPEAAGGPSVFLFPPKPKDTLMISRTPEVTCVVVDVSHEDPEVKFNWYVDGVEVHNAKTKPREEQYNSTYRVVSVLTVLHQDWLNGKEYKCKVSNKALPAPIEKTISKAKGQPREPQVCTLPPSRDELTKNQVSLSCAVKGFYPSDIAVEWESNGQPENNYKTTPPVLDSDGSFFLVSKLTVDKSRWQQGNVFSCSVMHEALHNHYTQKSLSLSPG
heavy 2: not shown
light: DIQMTQSPSSLSASVGDRVTITCQATEDIESFLAWYQQKPGQAPKLLIYRASTLESGVPSRFSGSGSGTDFTLTISSLQPEDFATYYCQSTVYGVNFVANAFGGGTKVVIKRTVAAPSVFIFPPSDEQLKSGTASVVCLLNNFYPREAKVQWKVDNALQSGNSQESVTEQDSKDSTYSLSSTLTLSKADYEKHKVYACEVTHQGLSSPVTKSFNRGEC
For B4, the “HEK-Blue IL-18: Emax (Abs at 630 nm)” value [1] was 0.37 Abs at 630 nm.

B5: VHH285 (VHH)
VHH: QVQLVESGGGLVQAGGSLRLSCAASGRTFSKHAMGWFRQAPGKEREFVAAIDWSGGSTYYADSVKGRFTISRDNAKNTVYLQMDSLKPEDTAVYYCAADSYTDYAQLWLPELESEYDYWGQGTQVTVSS
notes: also called VHH285_alpha
A Kd (human IL-18Rα) of 15 nM and a Kd (cynomolgus IL-18Rα) of 14 nM were found for B5 in this work.

B6: VHH363 (VHH)
VHH: QVQLVESGGGLVQAGGSLRLSCAASGRTFSSYTMGWFRQAPGKEREFVAAISWSAGRTYYADSVKGRFTISRDNAKNTVYLQMNSLKPEDTAVYFCAAEEAPDWAPIDCSGYGCLSLYDYWGQGTQVTVSS
notes: also called VHH363_alpha
A Kd (human IL-18Rα) of 34 nM and a Kd (cynomolgus IL-18Rα) of 95 nM were found for B6 in this work.

B7: VHH505 (VHH)
VHH: QLQLVESGGGLVQAGGSLRLSCAASRSITFSHNVMGWYRQAPGKQRELVASIGSGGSTNYVDSVKGRATISRDNAKKTVYLQMNSLKPEDTAVYYCGVVVGVYRGSLGQGTQVTVSS
notes: also called VHH505_beta
A Kd (human IL-18Rβ) of 1.6 nM was found for B7 in this work.
